Experimental data as given in patent US20230243836A1.

What was measured:
[1] = target: VISTA (V-Domain Ig Suppressor of T Cell Activation) expressed on human cells (human) (UniProt Q9H7M9); experiment: cell-based or functional assay
[2] = target: T1, P-selectin glycoprotein ligand 1 (PSGL-1) expressed on human cells (human) (UniProt Q14242); experiment: CAPTIREC (TRICEPS) ligand-receptor capture on naive human T cells, LC-MS/MS; enrichment against the anti-CD28 antibody control
T1 sequence: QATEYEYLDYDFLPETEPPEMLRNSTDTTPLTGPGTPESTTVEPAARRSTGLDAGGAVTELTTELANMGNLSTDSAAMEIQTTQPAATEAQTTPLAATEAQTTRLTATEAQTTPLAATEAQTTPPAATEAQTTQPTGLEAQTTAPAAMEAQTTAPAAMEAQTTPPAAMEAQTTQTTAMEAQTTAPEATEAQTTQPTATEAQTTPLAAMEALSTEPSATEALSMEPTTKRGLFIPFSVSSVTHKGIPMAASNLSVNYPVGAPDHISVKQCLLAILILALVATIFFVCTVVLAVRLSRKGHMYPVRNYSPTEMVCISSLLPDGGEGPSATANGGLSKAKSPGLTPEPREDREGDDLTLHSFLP

VISTA (V-Domain Ig Suppressor of T Cell Activation) expressed on human cells (human), sequence (Q9H7M9 33-311): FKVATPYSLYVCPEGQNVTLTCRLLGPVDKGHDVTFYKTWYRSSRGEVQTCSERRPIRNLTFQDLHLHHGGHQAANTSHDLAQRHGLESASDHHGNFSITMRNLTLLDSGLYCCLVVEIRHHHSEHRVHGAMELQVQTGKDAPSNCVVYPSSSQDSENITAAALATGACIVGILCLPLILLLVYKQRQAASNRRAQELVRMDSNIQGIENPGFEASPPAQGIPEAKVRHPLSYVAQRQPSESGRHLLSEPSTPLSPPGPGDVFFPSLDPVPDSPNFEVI
VISTA-Fc fusion protein, sequence (chain): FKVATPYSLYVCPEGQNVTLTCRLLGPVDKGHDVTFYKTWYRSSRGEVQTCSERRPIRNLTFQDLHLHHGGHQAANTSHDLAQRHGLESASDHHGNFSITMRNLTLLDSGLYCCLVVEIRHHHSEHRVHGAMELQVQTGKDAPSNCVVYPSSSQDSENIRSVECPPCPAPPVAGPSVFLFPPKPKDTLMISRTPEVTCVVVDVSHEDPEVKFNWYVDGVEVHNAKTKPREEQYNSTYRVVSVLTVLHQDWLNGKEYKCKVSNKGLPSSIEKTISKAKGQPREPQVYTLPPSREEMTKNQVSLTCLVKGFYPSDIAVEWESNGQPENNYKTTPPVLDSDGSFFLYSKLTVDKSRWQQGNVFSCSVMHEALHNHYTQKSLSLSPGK

fold decrease in IL-2 release from CD4+ T cells (72 h) [1] [fold] | Log2 FC (log2 fold change) [2] | Substance
2 | – | PSGL-1-Fc fusion protein (Example VIII) (from UniProt Q14242 18-320)
– | 2.33 | VISTA-Fc fusion protein
